Laboratory results taken from paper PMC12508155 (Nature Communications, 2025).

What was measured:
[1] = system: Gd-II riboswitch (guanidine class II riboswitch) (RNA, riboswitch) GCCCUAGGGACGACCCUAGAAGGCCAAGCAACCUGCGGGACGACCCGC; experiment: in-line probing; details: 100 mM KCl, 20 mM MgCl2, 50 mM Tris-HCl pH 8.3, 25 °C, 40 h; for apparent KD: Hill fit, two binding sites
MgdL = target: T1, MgdL (Vreelandella boliviensis, UniProt A0A265DXW6); experiment: LC-MS time course, coupled with MgdH; assay type: biochemical; details: N-(hydroxymethyl)guanidine formed in situ by MgdH from 0.5 mM methylguanidine with 5 mM 2-OG; MgdL 20 µg/mL
T1 construct: gene CE457_11615; full length, N-terminal 6xHis tag with TEV site (cleavage not mentioned), expressed in E. coli BL21
T1 sequence (A0A265DXW6 1-250): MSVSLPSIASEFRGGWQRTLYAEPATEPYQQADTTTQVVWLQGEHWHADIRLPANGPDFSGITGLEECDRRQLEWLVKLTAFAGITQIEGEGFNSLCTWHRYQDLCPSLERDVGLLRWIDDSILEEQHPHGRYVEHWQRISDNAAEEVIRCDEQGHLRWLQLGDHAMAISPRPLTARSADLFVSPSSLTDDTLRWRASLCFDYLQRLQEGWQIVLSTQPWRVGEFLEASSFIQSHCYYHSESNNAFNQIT

[2] = substrate: O=C(O)CCC(=O)C(=O)O; experiment: oxygen consumption, Clark-type electrode; assay type: biochemical, Vreelandella boliviensis; details: methylguanidine fixed at 2.5 mM, Fe(II), ascorbate, MOPS pH 7.2, 30 °C
[3] = substrate: CN(C)C(=N)N; experiment: oxygen consumption, Clark-type electrode; assay type: biochemical, Vreelandella boliviensis; details: 2-OG 5 mM, Fe(II), ascorbate, MOPS pH 7.2, 30 °C
[4] = substrate: CNC(=N)N; experiment: oxygen consumption, Clark-type electrode; assay type: biochemical, Vreelandella boliviensis; details: 2-OG fixed at 10 mM (5 mM in Methods), Fe(II), ascorbate, MOPS pH 7.2, 30 °C

For `CNC(=N)N`, the “apparent KD” value [1] was 83 ± 5 µM.

`N=C(N)NCO` [N-(hydroxymethyl)guanidine] was tested, and the “LC-MS time course, coupled with MgdH” value (MgdL) was “its presence clearly accelerated the fragmentation of N-(hydroxymethyl)guanidine”.

In the case of `CN(C)C(=N)N`, the binding ([1]; no conformational change, highest concentration not in material) is reported as “no”.

In the case of `N=C(N)N`, the “apparent KD” value [1] is reported as 93 ± 6 µM.

B1: MgdH (Vreelandella boliviensis LC1) (protein)
chain: MSQASNDLRLADFQAIPVIDIGDLLSGDLNARKAVAEQLGRAAREVGFFQMVGHGINPSLRQGLINQAKRFFAQPTETKMERYIGLYHHHRGYVPPGEESPDPNNPDMKEAFDLAFELPSDDPDVLAGTALLGPNPWPALEGFRQPVAAYYDAAYQVGRALMGGFALALGHEESHFLHHVTKPPSQLRLIHYPYNPDAEDAQGIGAHTDYECFTLLLPTAPGLEVMNGAGEWIDVPFRDDALVVNIGDMLEIWSNGEFVATSHRVRKVKEERYSFPLFFACDYHTVVAPLPELVKRHGQAFYPPLKAGDHLYAQTIQTFNYLRERLARGEIALPDGAREVGSLGQHGKHKETP
notes: full length, N-terminal 6xHis tag with TEV site (cleavage not mentioned), expressed in E. coli BL21, 41 kDa
B1 was tested, and the Km [2] was 0.53 ± 0.05 mM, the kcat [2] was 20.5 ± 0.5 s⁻¹ and the Km [3] was 0.25 ± 0.01 mM. The kcat [3] was 17.3 ± 0.2 s⁻¹, the Km [4] was 0.16 ± 0.01 mM and the kcat [4] was 19.6 ± 0.4 s⁻¹.
